Measured values reported in patent publication US20250084398A1, “SYSTEMS FOR MODULATING DRUG METABOLISM BY CELLS, METHODS AND COMPOSITIONS THEREOF” (priority 2021, published 2025).

Key:
[1] = mice, cited from earlier work
GUS enzyme [2] = assay: GUS assay: GUS specific activity in bacterial cultures, PNPG substrate, absorbance at 410 nm; type: cell-based, E. coli
Procedure: The GUS activity is performed as previously described elsewhere, including all required assay controls. Briefly, bacterial cultures grow to reach OD600 of 0.6. Once reached the targeted growth phase, the culture is transduced with the GusR_K125A-expressing vector. One hour later, the bacterial cultures are added to the assay reaction, along with the substrate (PNPG) and the assay buffer. The assay reaction is incubated at 37° C. for 6 hours and the activity of the GUS operon is monitored by the presence of the hydrolysis product (PNP) by measuring the absorbance at 410 nm. The arbitrary units of the GUS operon specific activity are calculated as follows: […]
Inhibition of the GUS activity using the GusR_K125A mutant was next evaluated by the inventors. More specifically, two E. coli bacterial hosts were used: BW25113 and MG1655. A plasmid that expresses the mutant repressor K125A was introduced into each of these hosts (BW25113 K125A and MG1655 K125A). The activity of the GUS operon was determined in the absence (−) or presence (+) of the GUS operon inducer PNPG. The specific units were calculated as described above. As shown by FIG. 4, GUS activity is inhibited in the presence of the dominant negative mutant repressor K125A in two bacterial hosts.

[3] = tested on: E. coli K-12 BW25113 and E. coli K12 MG1655; assay: TFU assay: transduction efficiency of phage-based particles into bacterial hosts; type: cell-based; conditions: 1 hr incubation with lysate
Procedure: FIG. 6. Transduction of the modulatory component into different microbiome isolates Transductions (TFU/ml) of the DOIN vector into microbiome isolates was determined using the TFU assay, as described previously. Test bacteria culture (MG1655 (grey bars), BW25113 (white bars)) was grown to reach mid-exponential growth phase and incubated for 1 hr with a lysate of transducing particles (modified bacteriophages) containing the DOIN vector expressing GusR K125A_CRISPR, used as the modulatory component. Ten-fold serial dilutions were plated in duplicates on selective plates, which only bacteria that were transduced were able to grow on. Dashed grey horizontal line indicates the assay limit of detection. Data represent at least two independent experiments.
The lysate titer is determined using the transducing forming units (TFU) assay as previously described elsewhere.
The produced lysates are used to transduce each of the abovementioned bacterial hosts, and the transduction efficiencies for each strain is determined by the TFU assay.
More specifically, phage-based particle lysate was prepared as described above. The transduction efficiency of the particles against the indicated bacterial host above was determined using the TFU assay, as described previously, and presented in Table 2. The tail used for transduction is TC1 (TC1 as denoted by SEQ ID NO: 4).

HL29 (ATCC HTB-38) cells = assay: Viability of human colorectal adenocarcinoma cells incubated 48 hr with SN38G-treated bacterial lysates (XTT viability assay); type: cell-based
Procedure: Two BW25113 bacterial cultures were used: Vector bacteria expressing empty vector, and K125A bacteria containing the DOIN vector expressing GusR mutant repressor K125A. The cultures were incubated with PNPG to induce the GUS operon and were then incubated with the indicated SN-38G (SantaCruz, 212931A) concentrations, followed by lysis of the bacteria. HL29 (ATCC® HTB-38™) cells were maintained according to the manufacture instructions and incubated for 48 hr with the different bacterial extractions. The viability of the cells, incubated with the bacterial lysates, were determined using the XTT viability assay, in three independent biological repeats using four replicates.
GusR mutant K125A reduces the cytotoxicity of SN38 by inhibiting the metabolism of SN38G by the bacterial GUS, in an enzyme concentration-dependent manner. The study was performed as described in FIGURE, with the following modifications: The cultures were incubated with PNPG to induce the GUS operon, diluted as indicated, followed by incubation with 1 μM of SN-38G, and subsequently, lysis of the bacteria. The viability of the cells was determined as above.
Bacteria (WT and GUS-inhibitor producing bacteria) are grown and induced using PNPG as described above. Following induction, the bacteria are lysed, and extracts are incubated with SN-38G or PNPG. At the end of the incubation period, the PNPG-incubated bacterial extracts are taken to determine the activity of the GUS. In parallel, the SN-38G-incubated bacterial extracts are added to HT29 cell culture to determine cytotoxicity and CC50.
The rate of SN38G conversion to SN38 by the bacterial GUS in the samples is dependent on the reaction conditions (e.g., GUS enzyme activity, substrate concentration etc.), thus the resulting samples contained different concentrations of SN38. The samples were then incubated with HL29, human colorectal adenocarcinoma cell-line, and the viability of the cells was determined. Different concentrations of SN38G and bacteria were examined to evaluate their effect on the cytotoxicity of SN38. […]

GUS enzyme [4] = conditions: induced with 1 mM PNPG; cited from earlier work
[5] = replacement of carboxylate-contacting residue; cited from earlier work

Question: With `CCc1c2c(nc3ccc(O)cc13)-c1cc3c(c(=O)n1C2)COC(=O)[C@]3(O)CC` [SN38] as the molecule, how does the “time to peak concentration of SN38” value ([1]; after administration of Irinotecan 80 mg/kg) read?
Answer: 2 h

Question: What about the “peak concentration of SN38” value ([1]; intestine, Irinotecan 80 mg/kg) of the same molecule?
Answer: around 1 μg/gr tissue weight

B1: K125A GusR (protein)
chain: MMDNMQTEAQPTRTRILNAAREIFSENGFHSASMKAICKSCAISPGTLYHHFISKEALIQAIILQDQERALARFREPIEGIHFVDYMVESIVSLTHEAFGQRALVVEIMAEGMRNPQVAAMLKNAHMTITEFVAQRMRDAQQKGEISPDINTAMTSRLLLDLTYGVLADIEAEDLAREASFAQGLRAMIGGILTAS
Question: What does the source list for B1?
Answer: GUS specific activity lower than in empty vector-expressing bacteria (GUS enzyme [2]; samples of the cytotoxicity study (BW25113)): around 10 fold; GUS activity (specific activity, FIG. 4) (GUS enzyme [2]; two bacterial hosts, BW25113 and MG1655, absence or presence of PNPG): inhibited; Transduction into microbiome isolates (FIG. 6) [3]: successful transduction; rescue of cells from the toxic effect of SN38 (FIG. 9) (HL29 (ATCC HTB-38) cells; SN38G 0.1 μM, BW25113 bacteria): completely rescued; cells rescued (viability, FIG. 9) (HL29 (ATCC HTB-38) cells; SN38G 1 μM, BW25113 bacteria, un-diluted): 60%; cells rescued from SN38 toxicity (FIG. 10) (HL29 (ATCC HTB-38) cells; SN38G 1 μM, bacteria 6-fold diluted): ~100%; GUS activity of bacterial cells containing an expression plasmid (GUS enzyme [4]): no GUS activity; affinity to the GUS ligand [5]: significantly lower affinity

B2: Y164F GusR (protein)
chain: MMDNMQTEAQPTRTRILNAAREIFSENGFHSASMKAICKSCAISPGTLYHHFISKEALIQAIILQDQERALARFREPIEGIHFVDYMVESIVSLTHEAFGQRALVVEIMAEGMRNPQVAAMLKNKHMTITEFVAQRMRDAQQKGEISPDINTAMTSRLLLDLTFGVLADIEAEDLAREASFAQGLRAMIGGILTAS
Question: What does the source list for B2?
Answer: reduction of GUS activity (FIG. 7) (GUS enzyme [2]; BW25113 bacteria): 34 fold; reduction of GUS activity (FIG. 7) (GUS enzyme [2]; MG1655 bacteria): ~1.5 fold
